Laboratory results reported in paper PMC3136212.

Target: RPA (full-length heterotrimer RPA1/RPA2/RPA3) (human) (UniProt P27694+P15927+P35244)
Experiment: FP
Parameters: unit not given here
Details: 18-carbon spacer (sp18) at 5' end; FP: 0.060 uM FAM-oligo, 10-1500 mM NaCl, room temperature; CD: Buffer A 25 mM Tris pH 7.5, 2 mM MgCl2, 6% glycerol, 1 mM DTT, 100 (or 10) mM …

Sequence of RPA (full-length heterotrimer RPA1/RPA2/RPA3) (human) (P27694 whole entry, chain 1 of 3): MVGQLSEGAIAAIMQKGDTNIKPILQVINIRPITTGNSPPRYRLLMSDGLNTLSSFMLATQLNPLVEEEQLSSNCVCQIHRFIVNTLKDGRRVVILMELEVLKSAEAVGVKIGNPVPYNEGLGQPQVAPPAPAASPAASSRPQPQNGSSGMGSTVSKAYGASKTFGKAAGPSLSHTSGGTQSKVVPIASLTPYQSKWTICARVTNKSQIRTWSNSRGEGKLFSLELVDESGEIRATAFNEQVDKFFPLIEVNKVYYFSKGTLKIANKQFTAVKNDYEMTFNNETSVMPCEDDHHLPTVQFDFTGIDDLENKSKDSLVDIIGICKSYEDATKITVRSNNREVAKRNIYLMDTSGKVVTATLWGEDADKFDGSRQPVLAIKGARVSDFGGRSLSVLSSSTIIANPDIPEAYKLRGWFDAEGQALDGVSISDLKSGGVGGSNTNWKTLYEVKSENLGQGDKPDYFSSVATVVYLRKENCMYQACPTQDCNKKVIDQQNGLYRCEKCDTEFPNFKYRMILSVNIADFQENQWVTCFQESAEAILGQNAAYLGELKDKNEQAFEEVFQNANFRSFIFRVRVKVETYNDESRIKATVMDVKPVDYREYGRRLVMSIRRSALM
Sequence of RPA (full-length heterotrimer RPA1/RPA2/RPA3) (human) (P15927 whole entry, chain 2 of 3): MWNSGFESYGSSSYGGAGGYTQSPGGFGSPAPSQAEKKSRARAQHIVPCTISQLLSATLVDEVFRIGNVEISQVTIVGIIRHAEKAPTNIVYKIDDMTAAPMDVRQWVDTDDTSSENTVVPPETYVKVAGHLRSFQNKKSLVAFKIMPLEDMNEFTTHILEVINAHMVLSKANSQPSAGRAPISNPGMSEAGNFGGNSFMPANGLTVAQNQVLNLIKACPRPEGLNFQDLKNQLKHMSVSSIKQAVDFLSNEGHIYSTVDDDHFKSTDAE
Sequence of RPA (full-length heterotrimer RPA1/RPA2/RPA3) (human) (P35244 whole entry, chain 3 of 3): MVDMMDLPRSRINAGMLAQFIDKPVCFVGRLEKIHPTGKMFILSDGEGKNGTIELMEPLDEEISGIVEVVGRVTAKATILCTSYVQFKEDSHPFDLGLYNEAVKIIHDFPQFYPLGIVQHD

**Q.** AAAAAAAAAAAAAAAAAAAAAAA [polyA] was tested. Which Kd did it give?
**A.** 0.07

**Q.** For ATCCCCTTCCCAACCTCACCCAA [Anti (Comp)], which Kd is on record?
**A.** 0.07

**Q.** For TAGGGGAAGGGTTGGAGTGGGTT [Gq23 (FP)], which Kd is on record?
**A.** 0.05
